Here are results for 4 molecules from US7314716B2, “Gustducin γ subunit materials and methods” (Mount Sinai School of Medicine, priority 1999, dated 2008).

One experiment deals with T1, gustducin α subunit (Rattus norvegicus, UniProt P29348).
T1 construct: made in house; host or cells: cell-free in vitro transcription/translation (Promega TNT system)
Put plainly: Trypsin protection assay of G protein α and γ subunit interaction. The class given is binding. The conditions noted are these: in vitro translated γ and α subunits mixed 3:1, without β subunit. An excerpt:
The interaction was confirmed using a trypsin protection assay that detects the direct interaction of G protein α and γ subunits. The assay is based on the fact that γ subunits, in the absence of β subunits, can interact directly with α subunits, and that this interaction apparently dictates which βγ dimer associates with which α subunit. See Rahmatullah & Robishaw, J. Biol. Chem., 269: 3574–3580 (1994).
To monitor G protein α and γ subunit interactions, gustducin γ and α subunit DNAs were transcribed and translated in vitro using the Promega TNT system, mixed in a 3:1 ratio, and incubated for 15 minutes at 30° C. in buffer G [15 mM Na-HEPES pH 8.0, 250 mM NaCl, 0.6 mM EDTA, 0.6 mM DTT, 5 mM MgCl2, 0.1 mM GDP and 0.3% polyoxyethylene 10-lauryl ether (LPX)]. The assay was initiated by adding Tosyl-L-phenylalanine chloromethyl ketone (TPCK) treated-trypsin (0.5 μg), incubated for 1 hour at 30° C., and terminated with 3 μg soybean trypsin inhibitor (SBTI) (15 min, at 30° C.). The samples were analyzed on 12% SDS-PAGE, gels were fixed, enhanced with En^3Hance (NEN), dried and exposed to X-ray film.
Other Gγ subunits were also tested in the assay.

A further experiment has as its target T2, β1 subunit (Homo sapiens, UniProt P62873).
T2 construct: made in house; host or cells: cell-free in vitro transcription/translation
In words: Trypsin assay of βγ dimer formation. The class given is binding. The settings on record: cotranslated in vitro with β1 subunit. The procedure:
To determine which β and gustducin γ subunit combinations were capable of forming dimers another trypsin assay was utilized. β monomers are cleaved at numerous sites by trypsin, whereas βγ dimers are cleaved at a single site, resulting in the appearance of a 26-kDa fragment of the β subunit. See Schmidt et al., J. Biol. Chem., 267: 13807–13810 (1992).
Plasmid DNAs (0.5 μg) encoding β1 subunit was transcribed and translated in vitro, in the presence or absence of plasmid DNA (0.5 μg) coding for the gustducin γ subunit. Aliquots (10 μl) of the cotranslated βγ mix or β subunit alone were digested by TPCK-treated trypsin (1 μg) in a final volume of 20 μl (with 50 mM Na-HEPES pH 8.0). After incubation for 1 hour at 30° C., the digestions were stopped by addition of 6 μg SBTI as described above. Protected fragments of β subunits were analyzed on 15% SDS-PAGE. Detection was as described above.
In the assay, β1 formed dimers with gustducin γ subunit that were protected from trypsin digestion.

T1 sequence (P29348 2-354 limits assumed): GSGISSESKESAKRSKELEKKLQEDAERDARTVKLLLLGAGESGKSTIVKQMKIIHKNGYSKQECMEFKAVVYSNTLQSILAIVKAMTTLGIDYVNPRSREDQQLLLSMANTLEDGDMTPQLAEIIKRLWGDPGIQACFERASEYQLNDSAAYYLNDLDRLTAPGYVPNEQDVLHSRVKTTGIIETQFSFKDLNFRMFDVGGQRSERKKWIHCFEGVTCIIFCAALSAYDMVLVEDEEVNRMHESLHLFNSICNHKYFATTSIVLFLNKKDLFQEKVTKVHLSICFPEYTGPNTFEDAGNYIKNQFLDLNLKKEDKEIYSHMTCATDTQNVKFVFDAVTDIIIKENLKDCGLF
T2 sequence (P62873 whole entry): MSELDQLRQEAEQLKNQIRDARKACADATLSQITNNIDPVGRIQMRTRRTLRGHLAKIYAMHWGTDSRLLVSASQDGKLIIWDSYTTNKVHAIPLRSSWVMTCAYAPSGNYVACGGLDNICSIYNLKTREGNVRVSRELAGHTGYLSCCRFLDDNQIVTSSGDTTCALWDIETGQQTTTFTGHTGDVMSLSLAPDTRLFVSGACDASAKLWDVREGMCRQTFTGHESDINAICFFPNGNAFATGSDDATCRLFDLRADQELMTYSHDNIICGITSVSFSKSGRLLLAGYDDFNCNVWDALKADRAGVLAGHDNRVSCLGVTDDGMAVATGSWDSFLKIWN
T2 sequence (Q9P2W3 whole entry partner): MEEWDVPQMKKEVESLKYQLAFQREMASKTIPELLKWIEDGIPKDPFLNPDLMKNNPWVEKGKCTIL

B1: Gγ5: G protein γ5 subunit (protein)
chain: SGSSSVAAMKKVVQQLRLEAGLNRVKVSQAAADLKQFCLQNAQHDPLLTGVSSSTNPFRPQKVC
As for B1, in the experiment with gustducin α subunit, the “protection of gustducin α subunit from tryptic digestion” value (“protection of gustducin α subunit” below) is “unable to protect”.

B2: Gustducin γ subunit: γ subunit of the taste cell G protein gustducin, 67 amino acids, designated Gγ13 (protein, listed as Mus musculus)
chain: MEEWDVPQMKKEVESLKYQLAFKREMSSKTIPELLKWIEDGIPKDPFLNPDLMKNNPWVEKAKCTIL
modifications: ends and bridges not checked
notes: γ subunit of the taste cell G protein gustducin, 67 amino acids, designated Gγ13
B2: the “dimer formation with β1, protected from trypsin digestion” value in the experiment with β1 subunit was “formed dimers”. Also, the “protection of gustducin α subunit” value with gustducin α subunit was “protected gustducin α subunit from tryptic digestion to a significant extent”.

B3: Gγ1: G protein γ subunit which interacts with the rod transducin α subunit (protein)
chain: PVINIEDLTEKDKLKMEVDQLKKEVTLERMLVSKCCEEFRDYVEERSGEDPLVKGIPEDKNPFKELKGGC
For the molecule B3, the “protection of gustducin α subunit” value with gustducin α subunit was “appeared to interact with gustducin α subunit, albeit to a lesser extent”.

B4: cone γ8 subunit: the cone transducin α subunit partner (protein)
chain: MAQDLSEKDLLKMEVEQLKKEVKNTRIPISKAGKEIKEYVEAQAGNDPFLKGIPEDKNPFKEKGGCLIS
modifications: ends and bridges not checked
notes: the cone transducin α subunit partner
For B4, the “protection of gustducin α subunit” value with gustducin α subunit is on record as “unable to protect”.
